Experimental data reported in publication PMC4608048.

Target: UbcH10^LR (as used in surface plasmon resonance) (human)
Assay: SPR

K^kin d (fast): 24 nM
K^kin d (slow): 23 nM
koff (fast): 0.04 s⁻¹
koff (slow): 0.0046 s⁻¹
kon (fast): 1.7e+06 M⁻¹ s⁻¹
kon (slow): 170000 M⁻¹ s⁻¹
Substance: APC/C^Cdh1.Hsl1 (from UniProt Q9H1A4;Q9UJX6;P30260;Q9UJX5;Q9UJX4;Q13042;Q9UJX3;Q9UJX2;Q9UM13;Q9NYG5;Q8NHZ8;Q9BS18;P60006;Q96DE5;Q9UM11-2;P34244) (complex)
